Experimental data taken from the supplement of paper PMC9170038.

Test system: MS2 coat protein
Assay: apparent KD of MS2 coat protein; higher = weaker reporter binding
Settings: Eterna round: R107
Method in brief: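 Illumina sequencing clusters were used for on-chip transcription of designed RNA switches. Titration with SNAP-549-labelled MS2 coat protein followed, in twofold steps from 0.7 or 1.5 nM to 3 µM in 100 mM Tris-HCl pH 7.5, 80 mM KCl, 4 mM MgCl2, without or with constant ligand. Apparent KD is each design's median of fits to normalised cluster binding curves.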

[1] = input ligand: theophylline 20 uM
[2] = input ligand: tryptophan 2.4 mM
[3] = input ligand: theophylline 2 mM

Sequence | apparent KD of MS2 coat protein (input ligand: arginine 13.2 mM) | apparent KD of MS2 coat protein [1] | apparent KD of MS2 coat protein [2] | apparent KD of MS2 coat protein [3] | apparent KD of MS2 coat protein (input ligand: none)
UCUUUCUAUGUAGAUACCAGCAUGUUAUAUUUCUAAUGACAUGAGGAUCACCCAUGUAAAUGCCCUUGGCAGCUGCGUUUUCUUU [SSTHB #5] | 14.2 nM | 20.2 nM | 15.2 nM |  | 
GCUAGGUCAUCGGCCGCCACUAACGAUGGCUCCGACAUGAGGAUCACCCAUGUGCCACAUGCGCAUAGGACCGGGAUGACCUAGC [SSTB NP+V+V2 #2] | 16.8 nM | 22.7 nM |  | 19.8 nM | 
AGCCGAACCACGGCCGCCACUGUAGACGUGACGAAAGUCGCGUCAACAUGAGGAUCACCCAUGUACAGGACCGGGUGGUCCGGCA [Omei Trp B SS A v2] | 9.09 nM | 11.2 nM | 6.75 nM | 8.09 nM | 8.68 nM
CCUGGAUCAGAUCUUAAAGGCGGUUCUGAUACCAGUCUUUUCCGAGACCCUUGGCAGCAGAACACAUGAGGAUCACCCAUGUAAA [theeternabot_exclusion_MS2_Theo_A_11] | 29.1 nM | 59 nM | 59.7 nM |  | 
CUAUAUGGAAACAUAUAGACGCAAAAGCGACGAGGACCGGUACGGCCGCCACUCGAAGAGUGGUGGACAUGAGGAUCACCCAUGU [Design 3 MOD] | 38.3 nM | 73.1 nM | 58.5 nM | 58.9 nM | 54.6 nM
UGAUCCUACAGAGAUACCAGUGCCGCUAGAUAACUAUGCACAUGAGGAUCACCCAUGUAACACCCUUGGCAGCUCAACUAAAGGG [Same State Theophylline B GF20] | 42.5 nM | 127 nM | 79.7 nM |  | 
GCACAAGAUGGAAGGAGCGCUGGGAAAGGUCACAUGAGGAUCACCCAUGUUCUCCUUGCCGAGCAGGUAGGUCGCCAUCUUGUGC [SSAB NP+V+V2 #2] | 30.4 nM | 50 nM | 33.9 nM | 56.1 nM | 37.8 nM
AGCGGAACGGAAGGGUCCCAAAAUUGUGAUACCAGCCUUGAAUCCGGCCCUUGGCAGCACAUGAGGAUCACCCAUGUACUGCGGU [Celate] | 11.1 nM | 24.6 nM | 14.4 nM | 123 nM | 11 nM
AAAUAUUACGGAAGGAGCGUCUCAUAUAUGAAACAUGAGGAUCACCCAUGUGAUAAUGAACGACAGGUAGGUCGCCGAUAAUUGA [JR_AAArginiB_Sub029] | 16.1 nM | 22.7 nM | 15.1 nM | 16.8 nM | 16 nM
CUAUAAGUACCGGUCCUCAGAUCCUCAUGACGAGGACCGGUACGGCCGCCACUCGAAACAUGAGGAUCACCCAUGUAAUAAUAUC [Brourdmod13] | 18.6 nM | 43.4 nM |  | 44.1 nM | 
ACUUGAUACUGAAGGAGCGUCGGAUAAACUCGCACAUGAGGAUCACCCAUGUAUAUGAAUCGACAGGUAGGUCGCAGUAUCGAGU [Arg B SS t6] | 13 nM | 19.7 nM | 15.3 nM | 15.6 nM | 13.6 nM
CUGCUACAUACGGCCGCCACUUUAAACAUGAGGAUCACCCAUGUACGGAAGGGUGGUAAAUGUUAAAGGACCGGGUAUGUAGCAA [Tryp B Ex t1] | 64.4 nM | 296 nM |  | 293 nM | 
UCCUACACGGAGACGUGUAGGAGUAAUGAUACCAGCAUGGAGACAUGCCCUUGGCAGCGUUACAUGAGGAUCACCCAUGUGGUGC [ETHA #7] | 14.7 nM | 26.2 nM | 17.7 nM | 270 nM | 16.3 nM
UGUUUUAAAAGUGAUACCAGACAAACAUGAGGAUCACCCAUGUAACAUGAGAGAUAAUAAGUCCCUUGGCAGCACAUAAUUAGUA [JR_Nu_SSTheophyB_Sub028] | 27 nM | 33.1 nM | 31.5 nM |  | 
GAUCGAAAUAACGCAUAGGAAAACUAUGCGCGAGGACCGGUACGGCCGCCACUCGUCCUCACAUGAGGAUCACCCAUGUACGAUC [#SwitchBubble #CuTurnoff] | 23.1 nM | 29.1 nM |  | 27.6 nM | 
CGGUAGGUAGGUCGAUAUCUACCCGUAGAAGGAGCGUAAGAAAAUACAGGUAGGUCGCUACGGUACAUGAGCAUCAGCCAUGUCC [SSArg A #13 Alt-Ms2] | 10.5 nM | 15.2 nM | 13.1 nM | 11.7 nM | 11.7 nM
UCACUCUGGGUGAAUUCCGGAGAUGUGGAAGGAGCGGACGAAAGUCCAGGUAGGUCGCCAUCGGACAUGAGGAUCACCCAUGUAC [Same State - Arginine A (Freestyle 23)] | 71.8 nM | 98 nM | 68.5 nM | 131 nM | 89 nM
CCCAAAUAGAUCUUUGGAAUUUUACUCGAAGGAGCGUCAUAGUAGGCAGGUAGGUCGCGAGACAUGAGGAUCACCCAUGUAGAGA [kinmullin] | 18.7 nM | 35.5 nM | 32.4 nM | 45.8 nM | 53.7 nM
AUCGGCCAGGGAAGGAGCGUGAAGACAUGAGGAUCACCCAUGUAGAGGCGCCGAAGGCGUUCGCAGGUAGGUCGCCCUGGCUGAU [#1 Same State - Arginine B Attempt #27 (HarryS)] | 14.7 nM | 23.8 nM | 15.8 nM | 17.7 nM | 14.7 nM

Sequence | apparent KD of MS2 coat protein (input ligand: arginine 13.2 mM) | apparent KD of MS2 coat protein [1] | apparent KD of MS2 coat protein [2] | apparent KD of MS2 coat protein [3] | apparent KD of MS2 coat protein (input ligand: none)
AUUAAUAGUUGUGAUACCAGACUUACAUGAGGAUCACCCAUGUUACUUAAGUGUUUUGAUGUCCCUUGGCAGCACUGUUUAGUUA [JR_SSTheophyB_Sub016] | 24.3 nM | 33 nM | 25 nM |  | 
GGUUGGUGUAUAUAUAUAUUGAUUACUGAAGGAGCGGGAAAUAACCCAGGUAGGUCGCAGAGAUCCACAUGAGGAUCACCCAUGU [!0.J] | 31 nM | 50.2 nM | 38.9 nM | 51 nM | 53.7 nM
CUUAUUUGCUGAAGGAGCGCCCGAGGAGAAGACAUGAGGAUCACCCAUGUAUAUAGUAUAUGGCAGGUAGGUCGCGGUGGGUAGG [Arginine B Same State; Euphoria Solution 3] | 28.1 nM | 65 nM | 26.9 nM | 31.2 nM | 30 nM
UGACCCUUCACGGCCGCCACUCAUUUUAAGUAGAGAGAGUACAUGAGGAUCACCCAUGUGAGAGAGAGGACCGGGUGAGAUGUUG [ss-trypB-0(N)] | 15.5 nM | 30.8 nM | 15.4 nM | 16.8 nM | 16.3 nM
ACAUGAGGAUCACCCAUGUACAUGAGGGAAGGAGCGGUACAUGUGCCAGGUAGGUCGCCCAAGAGCAUCAGCCAUGUACAUCAGC [qasmullin] | 43.5 nM | 131 nM | 80.5 nM | 90 nM | 131 nM
AGCGACAUGCAUGAUACCAGCUACAUGAGGAUCACCCAUGUACGUCAGUAAUGACUGUGUAGCCCUUGGCAGCAUAGAGCAUGUC [Exclusion - Theophylline B (Freestyle 16)] | 14.3 nM | 28.8 nM | 17.3 nM |  | 
GGCGCGGUGAUGGAAGCCGAACGCUAGGUACGAGGACCGGUACGGCCGCCACUCGUAGUCCUGGGACAUGAGGAUCACCCAUGUA [Same State Trp A GF20] | 39.3 nM | 109 nM | 51.2 nM | 96 nM | 119 nM
UAUCGGAACUGAAGGAGCGAGAUGACAAACAUGAGGAUCACCCAUGUUAUGGGUUGUUAAUCUCAGGUAGGUCGCAGUGGUAGCA [#27 Same State - Arginine B] | 52.7 nM | 138 nM | 151 nM | 194 nM | 151 nM
CCCAAAUAGAUCAAAGGAAUUAUACUCGAAGGAGCGUCAUAGUAGGCAGGUAGGUCGCGAGACAUGAGGAUCACCCAUGUAGAGA [sssmullin] | 33.3 nM | 45.6 nM | 34.9 nM | 57.2 nM | 51.9 nM
UUUUAAGGGAUCGGUGCUGGUAGCAGAGAUACCAGAGUAAUGAUACUCCCUUGGCAGCUCAGUACAUGAGGAUCACCCAUGUUUU [Exclusion Theophylline A GF25] | 16.7 nM | 23.2 nM | 18.1 nM |  | 
UAGUAACAUGAGGAUCACCCAUGUCCGGAUACCAGACAUAUACCAGUCCCUUGGCAGCCGCCAGUUAAAAUCUAACACAAAAGUU [theeternabot_sameState_MS2_Theo_A_34] | 38.8 nM | 55 nM | 34.4 nM |  | 
GCACCAGGUACGGAUACCAGCUGCCAGAGAUACAUGAGGAUCACCCAUGUGACCUGAUUUAGCCCUUGGCAGCUGUACCUGGUGC [SSThB NP+V+V2 #2 Same Structure] | 178 nM | 472 nM | 680 nM |  | 
GGUUACUCUACGGCCGCCACUGUAAAGUAAAGAUACCUGUACAUGACAUGAGGAUCACCCAUGUACAGGACCGGGUAGUGUAACC [Tryptophan B 16] | 133 nM | 636 nM |  | 804 nM | 
ACUUUGUCGGGUGAUACCAGCCUCGGCACAUCUCGUGCCGAACAUGAGGAUCACCCAUGUGGCCCUUGGCAGCACAUGACAACUC [Quceanteri] | 145 nM | 637 nM | 608 nM |  | 
AGCGGCUCGAAAGAGUCGCACUCAUGUGAAGGAGCGCCCGUUAGGGCAGGUAGGUCGCACAUGAGGAUCACCCAUGUACCUUCUA [MAT - Exclusion Arginine A - Mod of Eli - D19] | 53.1 nM | 282 nM | 140 nM | 312 nM | 196 nM
AAUAAUAAGGCGGCCGCCACUAAACAUGAGGAUCACCCAUGUCUCGAGGGCUUGCGUUUGGGAAGUAGGACCGGGCCAAUAAUAA [Exclusion - Tryptophan B (Freestyle 6)] | 12.6 nM | 18.8 nM | 16.4 nM | 20.4 nM | 17.9 nM
CGGAGUAUGACGGCCGCCACUUGCCGGGCGCAGCUGGCUGCUUGACAUGAGGAUCACCCAUGUCCAAGGACCGGGUCAUUCCUCG [theeternabot_sameState_MS2_Trp_B_37] | 59.4 nM | 145 nM |  | 189 nM | 
GGUUUCGCGGGCGAUACCAGCUUGAUCGUACUGGCCUGGUACAUGAGGAUCACCCAUGUAAGCCCUUGGCAGCGCGCGCGAGACC [#1 Exclusion - Theophylline B Attempt #4 (HarryS)] | 13.3 nM | 16.9 nM | 11.7 nM |  | 
GGGCCCGGGCGCGAGCCCGGGCCCAUUGAUACCAGUGAAUAUAUACGCCCUUGGCAGCGAAUCCUAACAUGAGGAUCACCCAUGU [5.B] | 34.8 nM | 62.3 nM | 38.2 nM | 49.4 nM | 50.2 nM
